In the supplement of paper PMC12855868:

B1: library; numbered along this chain (parent)
chain: MAAAGGARLLRAASAVLGGPAGRWLHHAGSRAGSSGLLRNRGPGGSAEASRSLSVSARARSSSEDKITVHFINRDGETLTTKGKVGDSLLDVVVENNLDIDGFGACEGTLACSTCHLIFEDHIYEKLDAITDEENDMLDLAYGLTDRSRLGCQICLTKSMDNMTVRVPETVADARQSIDVGKTS

Variants of: B1
Assay: scaled log2 fold change in cell abundance, elesclomol vs control (0 = silent mean, 1 = nonsense mean) (scaled log2 ratio); higher = higher viability under elesclomol (loss of FDX1 cuproptosis function)
Conditions: glucose 10 mM
Procedure: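 Deep mutational scan of full-length human FDX1: a pooled saturation-mutagenesis ORF library (every residue 2-184 mutated to all 19 amino acids plus stop, and silent codons where available) was expressed by lentivirus in FDX1-knockout ABC1 (14 days) or HEK293T (11 days) cells grown with elesclomol (ES) or DMSO control. Variant abundance came from ORF sequencing. The log2 fold change (ES vs control, mean of duplicates) was centred on the silent-variant mean (0) and scaled to the nonsense-variant mean (1). Higher values mean greater viability under ES, i.e. loss of FDX1 function in cuproptosis.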

[1] = with ABC1 FDX1 KO, elesclomol 5 nM, 14 days
[2] = with HEK293T FDX1 KO, elesclomol 40 nM, 11 days
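Further: variant abundance is its share of total variant reads in each endpoint sample, from next-generation sequencing of the integrated ORF PCR-amplified out of genomic DNA.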

For A105I, the “scaled log2 fold change” value [1] was -0.149 and the “scaled log2 fold change” value [2] was -0.181.

With A105F the “scaled log2 fold change” value [1] was 0.0682 and the “scaled log2 fold change” value [2] was 0.146.

For A105L, the “scaled log2 fold change” value [1] was -0.395 and the “scaled log2 fold change” value [2] was 0.791.

For A105K, the “scaled log2 fold change” value [1] was 0.238 and the “scaled log2 fold change” value [2] was 0.106.

For A105M, the “scaled log2 fold change” value [1] was -0.336 and the “scaled log2 fold change” value [2] was 0.677.

For A105C, the “scaled log2 fold change” value [1] was 0.134 and the “scaled log2 fold change” value [2] was -0.333.

For A105G, the “scaled log2 fold change” value [1] was -0.0984 and the “scaled log2 fold change” value [2] was -0.152.

In the case of A105E, the “scaled log2 fold change” value [1] is reported as 0.163 and the “scaled log2 fold change” value [2] is reported as -0.502.

With A105D the “scaled log2 fold change” value [1] was 0.0439 and the “scaled log2 fold change” value [2] was 0.0751.

In the case of N96M, the “scaled log2 fold change” value [1] is reported as 0.283 and the “scaled log2 fold change” value [2] is reported as -0.778.

N96C was tested, and the “scaled log2 fold change” value [1] was -0.324 and the “scaled log2 fold change” value [2] was -0.592.

In the case of N96D, the “scaled log2 fold change” value [1] is reported as 0.104 and the “scaled log2 fold change” value [2] is reported as 0.22.

N96V was tested, and the “scaled log2 fold change” value [1] was 0.307 and the “scaled log2 fold change” value [2] was 0.567.

In the case of N96I, the “scaled log2 fold change” value [1] is reported as 0.329 and the “scaled log2 fold change” value [2] is reported as 0.221.

With N96S the “scaled log2 fold change” value [1] was -0.155 and the “scaled log2 fold change” value [2] was -0.272.

N96P was tested, and the “scaled log2 fold change” value [1] was 0.423 and the “scaled log2 fold change” value [2] was -0.187.

For N96A, the “scaled log2 fold change” value [1] was -0.307 and the “scaled log2 fold change” value [2] was 1.03.

N96F was tested, and the “scaled log2 fold change” value [1] was 0.145 and the “scaled log2 fold change” value [2] was -0.464.

In the case of N96R, the “scaled log2 fold change” value [1] is reported as 0.204 and the “scaled log2 fold change” value [2] is reported as -0.0627.

For N96E, the “scaled log2 fold change” value [1] was 0.241 and the “scaled log2 fold change” value [2] was -0.435.

In the case of N96G, the “scaled log2 fold change” value [1] is reported as 0.111 and the “scaled log2 fold change” value [2] is reported as 0.179.

N96L was tested, and the “scaled log2 fold change” value [1] was 0.0905 and the “scaled log2 fold change” value [2] was 0.033.

With N96Y the “scaled log2 fold change” value [1] was -0.25 and the “scaled log2 fold change” value [2] was -0.153.

In the case of N96T, the “scaled log2 fold change” value [1] is reported as -0.0877 and the “scaled log2 fold change” value [2] is reported as -0.163.

With N96K the “scaled log2 fold change” value [1] was -0.0525 and the “scaled log2 fold change” value [2] was -0.121.

With N96Q the “scaled log2 fold change” value [1] was -0.22 and the “scaled log2 fold change” value [2] was 0.0675.

In the case of N96W, the “scaled log2 fold change” value [1] is reported as -0.0659 and the “scaled log2 fold change” value [2] is reported as -0.145.

In the case of N96H, the “scaled log2 fold change” value [1] is reported as 0.245.

For I100R, the “scaled log2 fold change” value [1] was 0.287 and the “scaled log2 fold change” value [2] was 0.0979.

For I100G, the “scaled log2 fold change” value [1] was -0.02 and the “scaled log2 fold change” value [2] was 0.208.

With I100T the “scaled log2 fold change” value [1] was 0.138 and the “scaled log2 fold change” value [2] was -0.631.

I100C was tested, and the “scaled log2 fold change” value [1] was -0.292 and the “scaled log2 fold change” value [2] was 0.943.

For I100H, the “scaled log2 fold change” value [1] was 0.0888 and the “scaled log2 fold change” value [2] was -0.835.

I100W was tested, and the “scaled log2 fold change” value [1] was 0.297 and the “scaled log2 fold change” value [2] was -0.693.

For I100N, the “scaled log2 fold change” value [1] was 0.181 and the “scaled log2 fold change” value [2] was 0.295.

I100S was tested, and the “scaled log2 fold change” value [1] was 0.183 and the “scaled log2 fold change” value [2] was 1.01.

In the case of I100Q, the “scaled log2 fold change” value [1] is reported as 0.155 and the “scaled log2 fold change” value [2] is reported as 0.874.

I100L was tested, and the “scaled log2 fold change” value [1] was -0.145 and the “scaled log2 fold change” value [2] was 0.198.

With I100Y the “scaled log2 fold change” value [1] was 0.0992 and the “scaled log2 fold change” value [2] was -0.139.

For I100A, the “scaled log2 fold change” value [1] was 0.162 and the “scaled log2 fold change” value [2] was -0.8.

With I100V the “scaled log2 fold change” value [1] was -0.852 and the “scaled log2 fold change” value [2] was 0.0203.

With I100M the “scaled log2 fold change” value [1] was -0.119 and the “scaled log2 fold change” value [2] was -0.526.

In the case of I100E, the “scaled log2 fold change” value [1] is reported as 0.167 and the “scaled log2 fold change” value [2] is reported as 0.099.

For I100D, the “scaled log2 fold change” value [1] was 0.409 and the “scaled log2 fold change” value [2] was -0.663.

In the case of I100F, the “scaled log2 fold change” value [1] is reported as -0.0589 and the “scaled log2 fold change” value [2] is reported as -0.586.

With I100K the “scaled log2 fold change” value [1] was 0.223 and the “scaled log2 fold change” value [2] was 0.128.

For I100P, the “scaled log2 fold change” value [1] was 0.146 and the “scaled log2 fold change” value [2] was -0.208.

D101E was tested, and the “scaled log2 fold change” value [1] was 0.0987 and the “scaled log2 fold change” value [2] was -0.481.

With D101H the “scaled log2 fold change” value [1] was -0.018 and the “scaled log2 fold change” value [2] was -0.455.

D101A was tested, and the “scaled log2 fold change” value [1] was -0.221 and the “scaled log2 fold change” value [2] was -0.578.

In the case of D101C, the “scaled log2 fold change” value [1] is reported as -0.242 and the “scaled log2 fold change” value [2] is reported as 0.242.

With D101G the “scaled log2 fold change” value [1] was 0.085 and the “scaled log2 fold change” value [2] was -0.787.

In the case of D101S, the “scaled log2 fold change” value [1] is reported as -0.19 and the “scaled log2 fold change” value [2] is reported as -0.82.

With D101R the “scaled log2 fold change” value [1] was 0.0225 and the “scaled log2 fold change” value [2] was -0.328.

For D101L, the “scaled log2 fold change” value [1] was -0.471 and the “scaled log2 fold change” value [2] was -0.161.

D101Q was tested, and the “scaled log2 fold change” value [1] was 0.0405 and the “scaled log2 fold change” value [2] was -0.42.

In the case of D101P, the “scaled log2 fold change” value [1] is reported as -0.357 and the “scaled log2 fold change” value [2] is reported as -0.96.

D101V was tested, and the “scaled log2 fold change” value [1] was 0.24 and the “scaled log2 fold change” value [2] was -0.613.
